The source of these data is publication PMC4479986, “An Alternative Phosphorylation Switch in Integrin β2 (CD18) Tail for Dok1 Binding” (Scientific Reports, 2015).

Square brackets hold non-standard residues; d marks the D form. Ends that are not written are not given here. Peptide text beside a SMILES is read from it. pS = N[C@@H](COP(=O)(O)O)C(=O)O

One data set deals with T1, Dok1 PTB domain (Homo sapiens, UniProt Q99704).
T1 construct: Human Dok1 PTB domain (Q154 – G256; Swiss-Prot Q99704, number as Q1-G103); six His-tag (N); made in house; host or cells: Escherichia coli Rosetta
T1 sequence (Q99704 154-256): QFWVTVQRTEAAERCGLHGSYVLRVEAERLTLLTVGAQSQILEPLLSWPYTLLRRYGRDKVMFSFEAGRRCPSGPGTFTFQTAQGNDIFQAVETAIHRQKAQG
Put plainly: 15N-1H HSQC NMR chemical shift titration of Dok1 PTB domain with integrin β2 tail peptides. In kind it is binding. The conditions noted are these: Table 2; 15N-1H HSQC combined chemical shift perturbation, 0.7 mM 15N-Dok1 PTB domain, 50 mM sodium phosphate pH 6.0, 100 mM NaCl, 2 mM DTT, 20 min equilibration; depletion model fit; Kd ± S.E.; read-out: Dissociation constant Kd. How it is done: Human Dok1 PTB domain (Q154 – G256; Swiss-Prot Q99704, number as Q1-G103) was sub-cloned into the pET14b vector with an N-terminal six His-tag. Escherichia coli Rosetta cells were transformed with the expression plasmid and grown at 37 °C either in LB or M9 medium containing [^15N] ammonium chloride (Cambridge Isotope Laboratories). Expression of recombinant protein was induced by adding 1 mM IPTG to cells (OD600 0.6–0.7) followed by incubation for 6–12 h at 16 °C. Cells were centrifuged and re-suspended in Buffer A (20 mM Tris-HCl buffer, pH 8.0) followed by affinity purification on a Nickel-NTA column (Qiagen). […] Proteins were eluted at a flow rate of 0.5 ml/min and monitored by absorbance at λ = 276 nm.
All NMR experiments were performed on a Bruker DRX 600 MHz spectrometer equipped with an actively shielded cryoprobe. NMR data were processed using the NMRPipe and NMRDraw suite and analysed by Sparky (T.D. Goddard and D.G. Kneller, University of California, San Francisco). […] The stock solutions of the above mentioned peptides were prepared in the same buffer (100 mM NaCl, 2 mM DTT, 50 mM sodium phosphate, pH 6.0) used for the Dok1 PTB domain NMR experiments, ^15N-^1H HSQC spectra were recorded at different protein:peptide molar ratios (1:0.1, 1:0.2, 1:0.3, 1:0.5, 1:1, 1:1.5, 1:2, 1:2.5 and 1:3) for all of the above mentioned peptides except for the unphosphorylated KT15. […]

Data set [1] is described as follows: Solubility of β2 tail peptide as observed in NMR sample preparation. It is filed as physicochemical. The conditions noted are these: at high concentrations, NMR buffer.
The target of data set [2] is T2, Human Dok1 PTB domain (Q154-G256) (human, UniProt Q99704 154-256).
T2 construct: Docking protein 1 (Dok1; p62Dok), human, PTB domain Q154-G256 of Swiss-Prot Q99704. numbers count on: the construct, renumbered Q1-G103 (Q154 = Q1); pET14b vector; no removal of the His tag is described; Residue numbers of the PTB domain in the results (Arg54, Arg69 ...) count on Q1-G103; also called PTB domain of Dok1; source: E. coli Rosetta, purified (Nickel-NTA, gel filtration on Superdex …)
T2 sequence (looked up): T1 sequence (Q99704 154-256)
The data set can be described thus: NMR titration; 15N-1H HSQC of 15N-labelled Dok1 PTB domain at 0.7 mM, unlabelled peptide added (protein:peptide 1:0.1 to 1:3; KT15 1:0.5 to 1:6); 100 mM NaCl, 2 mM DTT, 50 mM sodium phosphate, pH 6.0; Kd from combined chemical shift changes, depletion model; apparent for KT15. The conditions noted are these: both partners purified.

Data set [3] concerns Dok1-CFP / integrin β2-YFP association in K562 cells. The data set can be described thus: YFP-photobleach FRET between Dok1-CFP and integrin β2-YFP in K562 cells. In kind it is cell-based, human. As to conditions: K562 stably expressing Dok1-CFP, transfected with integrin αL, β2-YFP and CCR5; RANTES 50 ng/ml, 10 min, 37 °C; 39 cells with, 60 without; p < 0.05. How it is done:
K562 cells (ATCC, Manassas, VA) were cultured in RPMI1640 full-medium containing 10% (v/v) FBS and antibiotics. Cells (2 × 10^6) were transfected with integrin αL plasmid (9 μg), integrin β2-YFP plasmid (WT or mutant) (9 μg) and Dok1-CFP or CFP plasmid (12 μg) by electroporation using the Neon electroporation kit (Invitrogen) on a MP-100 pipette-type microporator (Invitrogen). YFP-photobleach FRET assay was performed essentially as described. Immunoblottings of transfected K562 lysates were performed using rabbit anti-GFP antibody (Life Technologies, Grand Island, NY), rabbit anti-Dok1 antibody (Abcam, Cambridge, MA) and HRP-conjugated goat anti-rabbit (Avansta, Menlo Park, CA) followed by ECL detection. To generate K562 cells stably expressing Dok1-CFP, cells were transfected with Dok1-CFP plasmid by electroporation followed by serial dilutions into 96-well cell culture microtitre plates to select for stable clones in the presence of antibiotic G418 (0.6 mg/ml). Clones expressing Dok1-CFP were screened by flow cytometry analyses and verified by immunoblotting with anti-GFP antibody (Life Technologies, Grand Island, NY). […] Samples were acquired and examined on a FACSCalibur flow cytometer and data analyzed using the Flowjo software (Tree Star Inc. Ashland, OR). […]

Consider `CC(C)C[C@H](NC(=O)[C@@H]1CCCN1C(=O)[C@H](CC(N)=O)NC(=O)[C@H](CC(=O)O)NC(=O)[C@H](CC(N)=O)NC(=O)[C@H](CC(N)=O)NC(=O)[C@H](Cc1c[nH]c2ccccc12)NC(=O)[C@H](CCC(N)=O)NC(=O)[C@H](CO)NC(=O)[C@@H](N)CCCCN)C(=O)N[C@@H](Cc1ccccc1)C(=O)N[C@@H](CCCCN)C(=O)N[C@@H](CO)C(=O)N[C@@H](C)C(=O)N[C@H](C(=O)O)[C@@H](C)O` [KT15] (H-KSQWNNDNPLFKSAT-OH), for which the Kd on Dok1 PTB domain came out at 16000 ± 300 µM. On the same count and under the same terms, the same measure for `CC(C)C[C@H](NC(=O)[C@@H]1CCCN1C(=O)[C@H](CC(N)=O)NC(=O)[C@H](CC(=O)O)NC(=O)[C@H](CC(N)=O)NC(=O)[C@H](CC(N)=O)NC(=O)[C@H](Cc1c[nH]c2ccccc12)NC(=O)[C@H](CCC(N)=O)NC(=O)[C@H](CO)NC(=O)[C@@H](N)CCCCN)C(=O)N[C@@H](Cc1ccccc1)C(=O)N[C@@H](CCCCN)C(=O)N[C@@H](COP(=O)(O)O)C(=O)N[C@@H](C)C(=O)N[C@H](C(=O)O)[C@@H](C)O` [pSer756-KT15] (H-KSQWNNDNPLFK[pS]AT-OH): 189 ± 30 µM. “KALIHLSDLREYRRFEKEKLKSQWNNDNPLFKSATTTVMNPKFAES [full-length unphosphorylated β2 tail, Synthetic full-length integrin β2 (CD18) cytoplasmic tail, residues 724-769]”: in data set [1], the Solubility in words entry is “limited solubility”.

B1: Full-length integrin β2 tail peptide phosphorylated at Ser756 (peptide)
chain: KALIHLSDLREYRRFEKEKLKSQWNNDNPLFK[pS]ATTTVMNPKFAES
As for B1, the Kd in data set [2] was 98 µM.

B2: Full-length integrin β2 tail peptide phosphorylated at Ser745 (peptide)
chain: KALIHLSDLREYRRFEKEKLK[pS]QWNNDNPLFKSATTTVMNPKFAES
As to B2, the Kd in data set [2] worked out at 215 µM.

B3: RANTES: Chemokine, ligand of CCR5, used to activate cells (Calbiochem) (protein, UniProt P13501 24-91, looked up)
C-C motif chemokine 5: SPYSSDTTPCCFAYIARPLPRAHIKEYFYTSGKCSNPAVVFVTRKNRQVCANPEKKWVREYINSLEMS
Regarding B3, in data set [3], the “FRET signal Dok1-CFP / integrin β2-YFP compared with untreated cells” value was “significantly lower”.

B4: KT18EE, integrin β2 tail fragment (K742-T759) with Ser745 and Ser756 substituted by Glu (peptide)
peptide: KLKEQWNNDNPLFKEATT
notes: also called Ser to Glu substituted KT18 peptide; Ser to Glu substituted β2 tail peptide; source: synthetic peptide, bought: GLBioChem, Shanghai (purity >95%)
Regarding B4, in data set [2], the Kd came out at 8490 µM.
